Assay results taken from patent US20040248785A1 (UNIVERSITY OF MARYLAND BALTIMORE, published 2004).
Blank lines part the entries; values can stand above or below the binder they belong to.

Experiments:
[1] = target: T1, low density lipoprotein receptor-related protein / alpha2-macroglobulin receptor (LRP), isolated from human … (human, UniProt Q07954 20-4544); assay: homologous displacement of 125I-A2 (5 nM) by unlabeled A2 (0-1750 nM) on immobilized LRP, program Ligand
T1 construct: mature; Native receptor coated on microtiter wells; also called purified LRP; immobilized LRP

[2] = target: LRP on mouse embryonic fibroblast (MEF) cells (mouse, UniProt Q91ZX7 20-4545); assay: cell-based or functional assay
[3] = target: T1, low density lipoprotein …; assay: heterologous displacement of 125I-fVIII (1 nM) from LRP-coated wells; isolated A2 domain as competitor
Procedure: (§1) Homologous and heterologous ligand displacement assays were performed as previously described (Williams, S. E., et al., J. Biol. Chem. 267:9035-9040 (1992)). Microtiter wells were coated with purified LRP or BSA (3 μg/ml) in 50 mM Tris, 0.15 M NaCl, pH 8.0, for 16 h and then blocked with 3% BSA in TBS. Coated wells were incubated with ¹²⁵I-A2 or ¹²⁵I-fVIII in 20 mM Tris-buffered saline pH 7.4, containing 5 mM CaCl₂, 0.05% Tween-20 in the presence or absence of unlabeled competitors for 1 h at 37° C. The radioactivity bound to the wells was counted using a γ-counter (Pharmacia). Affinity constants were derived from homologous and heterologous displacement data using the computer program LIGAND (Munson, P T and Rodbard, D. Anal. Biochem. 107:220-239 (1980)).
(§2) In order to localize fVIII region(s) involved in interaction with LRP, binding between ¹²⁵I-fVIII and immobilized LRP was competed by unlabeled fVIII fragments.

[4] = target: T1, low density lipoprotein …; assay: RAP as competitor of 125I-fVIII (1 nM) binding to LRP-coated wells, LIGAND fit
[5] = target: T1, low density lipoprotein …; assay: solid-phase heterologous ligand displacement: RAP competes with 125I-fVIII (1 nM) for LRP-coated wells, 1 h at 37 C
Procedure: FIGS. 15A-15B. Binding of ¹²⁵I-fVIII to purified LRP by ligand competition assay. ¹²⁵I-fVIII (1 nM) was incubated for 1 h at 37° C. in wells coated with LRP (•) or BSA (∘) in the presence of increasing concentrations of unlabeled competitors, fVIII (•, ∘) or vWf (Δ) (FIG. 15A) and RAP (•, ∘) (FIG. 15B). In the experiment (Δ), ¹²⁵I-fVIII was preincubated with vWf for 30 min at 37° C., prior to its addition to the wells. Following incubation, the wells were washed and ¹²⁵I-fVIII binding was determined. Binding of ¹²⁵I-fVIII in the presence of unlabeled fVIII, vWf, or RAP is expressed as the percentage of ¹²⁵fVIII binding, when no competitor was added. Each point represents the mean value of triplicates and the error bars display the standard deviation. The curves show a best fit of the data to a model describing heterologous ligand displacement from a single class of binding sites using the program LIGAND.
Homologous and heterologous ligand displacement assays were performed as previously described (Williams, S. E., et al., J. Biol. Chem. 267:9035-9040 (1992)). Microtiter wells were coated with purified LRP or BSA (3 μg/ml) in 50 mM Tris, 0.15 M NaCl, pH 8.0, for 16 h and then blocked with 3% BSA in TBS. […] The radioactivity bound to the wells was counted using a γ-counter (Pharmacia). […]

[6] = target: T1, low density lipoprotein …; assay: competition assay: peptide 484-509 added with 125I-fVIII (1 nM) to LRP-coated wells; competitor of fVIII for LRP
Procedure: FIGS. 17A-17B. Effect of monoclonal antibodies and synthetic peptides on ¹²⁵fVIII binding to purified LRP. […] Binding of ¹²⁵I-fVIII in the presence antibodies or peptides is expressed as the percentage of its binding, when no competitor was added. The mean and standard deviation of the triplicate measurements are presented.
as §1

[7] = target: T1, low density lipoprotein …; assay: heterologous displacement of 125I-fVIII (1 nM) from LRP-coated wells; HCh as competitor
Procedure: as §1, §2

T1 sequence (Q07954 20-4544, form in doubt): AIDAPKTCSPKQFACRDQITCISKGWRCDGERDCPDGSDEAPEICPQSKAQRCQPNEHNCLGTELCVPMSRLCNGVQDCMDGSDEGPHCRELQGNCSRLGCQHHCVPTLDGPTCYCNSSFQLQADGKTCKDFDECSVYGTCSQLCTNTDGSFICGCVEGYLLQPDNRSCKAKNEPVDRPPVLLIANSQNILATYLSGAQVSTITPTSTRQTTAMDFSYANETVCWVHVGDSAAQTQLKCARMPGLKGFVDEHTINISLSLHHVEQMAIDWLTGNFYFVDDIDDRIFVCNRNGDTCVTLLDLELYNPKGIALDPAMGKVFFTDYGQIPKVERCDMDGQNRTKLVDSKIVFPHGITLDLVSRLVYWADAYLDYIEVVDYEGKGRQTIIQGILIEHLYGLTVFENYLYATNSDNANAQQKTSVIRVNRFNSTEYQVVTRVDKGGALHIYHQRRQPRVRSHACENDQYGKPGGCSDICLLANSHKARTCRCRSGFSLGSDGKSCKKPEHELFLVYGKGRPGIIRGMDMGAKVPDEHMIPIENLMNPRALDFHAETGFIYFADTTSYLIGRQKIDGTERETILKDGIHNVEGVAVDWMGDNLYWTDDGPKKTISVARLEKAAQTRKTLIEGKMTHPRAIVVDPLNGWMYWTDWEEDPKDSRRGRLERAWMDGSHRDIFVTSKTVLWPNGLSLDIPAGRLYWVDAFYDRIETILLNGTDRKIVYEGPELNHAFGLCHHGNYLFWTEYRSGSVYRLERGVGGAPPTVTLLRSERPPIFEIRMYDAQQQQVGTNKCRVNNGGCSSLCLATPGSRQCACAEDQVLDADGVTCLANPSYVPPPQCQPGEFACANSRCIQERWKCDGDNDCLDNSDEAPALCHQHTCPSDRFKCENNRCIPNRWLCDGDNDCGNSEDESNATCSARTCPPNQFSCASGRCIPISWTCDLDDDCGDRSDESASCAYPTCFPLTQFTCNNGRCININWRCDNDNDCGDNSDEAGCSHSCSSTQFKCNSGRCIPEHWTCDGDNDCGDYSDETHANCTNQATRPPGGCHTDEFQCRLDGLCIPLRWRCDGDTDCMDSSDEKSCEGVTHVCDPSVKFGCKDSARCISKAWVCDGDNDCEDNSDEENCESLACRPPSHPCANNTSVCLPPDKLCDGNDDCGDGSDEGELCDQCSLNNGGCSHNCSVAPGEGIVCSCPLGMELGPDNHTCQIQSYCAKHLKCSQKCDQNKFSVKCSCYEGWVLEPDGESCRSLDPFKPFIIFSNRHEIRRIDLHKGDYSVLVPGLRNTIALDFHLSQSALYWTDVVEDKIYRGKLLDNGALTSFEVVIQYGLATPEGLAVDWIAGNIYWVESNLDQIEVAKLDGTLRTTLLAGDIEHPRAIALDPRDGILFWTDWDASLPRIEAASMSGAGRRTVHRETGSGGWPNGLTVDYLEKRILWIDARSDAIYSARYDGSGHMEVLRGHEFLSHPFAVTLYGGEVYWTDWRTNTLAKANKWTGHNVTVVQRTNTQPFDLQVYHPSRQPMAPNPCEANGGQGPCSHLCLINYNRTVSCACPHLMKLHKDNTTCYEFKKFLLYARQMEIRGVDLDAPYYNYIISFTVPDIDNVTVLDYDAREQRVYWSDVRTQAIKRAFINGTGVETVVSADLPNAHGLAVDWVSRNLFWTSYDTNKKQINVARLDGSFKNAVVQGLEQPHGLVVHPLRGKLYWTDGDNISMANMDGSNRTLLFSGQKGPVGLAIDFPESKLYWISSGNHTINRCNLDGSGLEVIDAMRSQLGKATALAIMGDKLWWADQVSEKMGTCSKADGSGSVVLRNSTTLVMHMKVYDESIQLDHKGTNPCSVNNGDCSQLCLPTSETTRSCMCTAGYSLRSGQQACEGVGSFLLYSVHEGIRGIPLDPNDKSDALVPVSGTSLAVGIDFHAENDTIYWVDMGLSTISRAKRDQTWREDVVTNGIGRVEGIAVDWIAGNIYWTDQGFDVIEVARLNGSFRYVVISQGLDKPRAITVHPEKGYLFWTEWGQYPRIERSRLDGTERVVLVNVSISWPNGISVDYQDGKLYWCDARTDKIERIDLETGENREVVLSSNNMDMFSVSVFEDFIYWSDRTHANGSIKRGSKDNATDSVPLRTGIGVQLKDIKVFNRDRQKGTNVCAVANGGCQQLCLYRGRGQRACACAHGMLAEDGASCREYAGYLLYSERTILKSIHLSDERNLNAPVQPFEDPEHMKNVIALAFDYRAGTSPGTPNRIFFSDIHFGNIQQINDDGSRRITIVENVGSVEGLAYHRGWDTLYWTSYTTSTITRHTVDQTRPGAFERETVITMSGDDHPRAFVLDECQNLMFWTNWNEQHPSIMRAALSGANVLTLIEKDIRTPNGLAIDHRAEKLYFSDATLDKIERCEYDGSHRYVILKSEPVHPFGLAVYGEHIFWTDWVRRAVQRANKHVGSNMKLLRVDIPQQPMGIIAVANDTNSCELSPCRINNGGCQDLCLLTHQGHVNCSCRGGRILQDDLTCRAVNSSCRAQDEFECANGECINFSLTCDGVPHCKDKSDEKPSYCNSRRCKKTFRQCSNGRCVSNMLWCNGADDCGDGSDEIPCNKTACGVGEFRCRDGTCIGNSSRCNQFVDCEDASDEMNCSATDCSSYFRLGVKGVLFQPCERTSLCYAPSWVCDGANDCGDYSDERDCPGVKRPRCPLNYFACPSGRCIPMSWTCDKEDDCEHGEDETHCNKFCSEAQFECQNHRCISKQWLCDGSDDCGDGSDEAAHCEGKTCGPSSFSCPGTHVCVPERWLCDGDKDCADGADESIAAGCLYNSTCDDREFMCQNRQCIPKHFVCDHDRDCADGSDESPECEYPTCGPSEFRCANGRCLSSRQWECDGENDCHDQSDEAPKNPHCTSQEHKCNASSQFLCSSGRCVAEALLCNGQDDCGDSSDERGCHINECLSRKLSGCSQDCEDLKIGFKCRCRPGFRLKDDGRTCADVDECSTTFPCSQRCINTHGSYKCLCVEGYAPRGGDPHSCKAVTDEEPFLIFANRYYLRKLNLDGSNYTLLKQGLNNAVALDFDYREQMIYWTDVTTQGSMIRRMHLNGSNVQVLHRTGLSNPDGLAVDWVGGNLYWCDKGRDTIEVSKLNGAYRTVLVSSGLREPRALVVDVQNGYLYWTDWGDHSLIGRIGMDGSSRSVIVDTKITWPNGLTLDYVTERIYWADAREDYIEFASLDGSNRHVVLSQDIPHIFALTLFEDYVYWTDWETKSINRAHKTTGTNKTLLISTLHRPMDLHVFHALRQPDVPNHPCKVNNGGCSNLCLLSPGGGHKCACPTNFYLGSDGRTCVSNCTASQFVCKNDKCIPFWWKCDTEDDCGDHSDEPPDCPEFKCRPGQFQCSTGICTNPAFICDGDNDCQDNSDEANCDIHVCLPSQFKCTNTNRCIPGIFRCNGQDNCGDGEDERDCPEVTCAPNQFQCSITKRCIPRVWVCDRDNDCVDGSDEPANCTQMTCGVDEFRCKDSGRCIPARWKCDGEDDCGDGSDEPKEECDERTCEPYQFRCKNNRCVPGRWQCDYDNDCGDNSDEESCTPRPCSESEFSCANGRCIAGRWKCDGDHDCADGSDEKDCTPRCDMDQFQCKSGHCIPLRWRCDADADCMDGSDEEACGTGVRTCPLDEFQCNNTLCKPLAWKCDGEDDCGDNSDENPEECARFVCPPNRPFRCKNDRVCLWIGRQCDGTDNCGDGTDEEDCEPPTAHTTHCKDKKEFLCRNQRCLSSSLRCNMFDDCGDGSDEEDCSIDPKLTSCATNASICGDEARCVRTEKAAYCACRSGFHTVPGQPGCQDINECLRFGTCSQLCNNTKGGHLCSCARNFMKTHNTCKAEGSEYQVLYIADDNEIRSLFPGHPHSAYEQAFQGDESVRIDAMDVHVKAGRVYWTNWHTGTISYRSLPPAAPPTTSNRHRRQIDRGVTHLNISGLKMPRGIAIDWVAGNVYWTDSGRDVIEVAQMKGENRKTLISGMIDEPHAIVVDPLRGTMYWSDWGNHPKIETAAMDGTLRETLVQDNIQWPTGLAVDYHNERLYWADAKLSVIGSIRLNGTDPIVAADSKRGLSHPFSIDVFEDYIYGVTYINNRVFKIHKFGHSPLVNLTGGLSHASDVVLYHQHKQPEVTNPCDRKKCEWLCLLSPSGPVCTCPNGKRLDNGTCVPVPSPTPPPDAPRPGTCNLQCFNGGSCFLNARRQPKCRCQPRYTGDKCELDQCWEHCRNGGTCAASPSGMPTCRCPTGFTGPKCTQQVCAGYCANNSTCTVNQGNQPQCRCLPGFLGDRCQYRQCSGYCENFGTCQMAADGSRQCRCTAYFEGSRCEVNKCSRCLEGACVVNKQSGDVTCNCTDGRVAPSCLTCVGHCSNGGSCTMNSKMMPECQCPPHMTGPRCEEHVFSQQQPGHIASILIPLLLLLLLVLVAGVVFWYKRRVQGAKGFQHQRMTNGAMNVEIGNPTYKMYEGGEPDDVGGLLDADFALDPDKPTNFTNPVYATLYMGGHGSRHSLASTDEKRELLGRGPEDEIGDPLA

- Kd [1]: 130 nM
- inhibition of degradation of 125I-fVIII/vWf complex by MEF cells by a 1000-fold excess of A2, after 4 hours [2]: > 60%
- inhibition of internalization of 125I-fVIII/vWf complex by MEF cells by a 1000-fold excess of A2, after 4 hours [2]: > 70%
- Ki [3]: 132 nM
B1: A2 subunit (A2 domain) of factor VIII, isolated from thrombin-activated fVIII (other)
chain: SVAKKHPKTWVHYIAAEEEDWDYAPLVLAPDDRSYKSQYLNNGPQRIGRKYKKVRFMAYTDETFKTREAIQHESGILGPLLYGEVGDTLLIIFKNQASRPYNIYPHGITDVRPLYSRRLPKGVKHLKDFPILPGEIFKYKWTVTVEDGPTKSDPRCLTRYYSSFVNMERDLASGLIGPLLICYKESVDQRGNQIMSDKRNVILFSVFDENRSWYLTENIQRFLPNPAGVQLEDPEFQASNIMHSINGYVFDSLQLSVCLHEVAYWYILSIGAQTDFLSVFFSGYTFKHKMVYEDTLTLFPFSGETVFMSMENPGLWILGCHNSDFRNRGMTALLKVSSCDKNTGDYYEDSYEDISAYLLSKNNAIEPR
modifications: 125I-labelled where used as tracer
notes: Protein was made from plasma-derived fVIII

- Ki [4]: 2.5 nM
- IC50 (read off the curve) [5]: ~2 nM
B2: 39 kDa receptor-associated protein (RAP), human, expressed in bacteria (ligand)
chain: YSREKNQPKPSPKRESGEEFRMEKLNQLWEKAQRLHLPPVRLAELHADLKIQERDELAWKKLKLDGLDEDGEKEARLIRNLNVILAKYGLDGKKDARQVTSNSLSGTQEDGLDDPRLEKLWHKAKTSGKFSGEELDKLWREFLHHKEKVHEYNVLLETLSRTEEIHENVISPSDLSDIKGSVLHSRHTELKEKLRSINQGLDRLRRVSHQGYSTEAEFEEPRVIDLWDLAQSANLTDKELEAFREELKHFEAKIEKHNHYQKQLEIAHEKLRHAESVGDGERVSRSREKHALLEGRTKELGYTVKKHLQDLSGRISRARHNEL
notes: also called alpha2 macroglobulin receptor-associated protein

- IC50 (read off the curve) [6]: ~1000 nM
Binder: RPLYSRRLPKGVKHLKDFPILPGEIF [synthetic peptide of fVIII A2 domain residues 484-509]

- Ki [7]: 120 nM
B3: heavy chain (HCh) of factor VIII (other)
chain: ATRRYYLGAVELSWDYMQSDLGELPVDARFPPRVPKSFPFNTSVVYKKTLFVEFTDHLFNIAKPRPPWMGLLGPTIQAEVYDTVVITLKNMASHPVSLHAVGVSYWKASEGAEYDDQTSQREKEDDKVFPGGSHTYVWQVLKENGPMASDPLCLTYSYLSHVDLVKDLNSGLIGALLVCREGSLAKEKTQTLHKFILLFAVFDEGKSWHSETKNSLMQDRDAASARAWPKMHTVNGYVNRSLPGLIGCHRKSVYWHVIGMGTTPEVHSIFLEGHTFLVRNHRQASLEISPITFLTAQTLLMDLGQFLLFCHISSHQHDGMEAYVKVDSCPEEPQLRMKNNEEAEDYDDDLTDSEMDVVRFDDDNSPSFIQIRSVAKKHPKTWVHYIAAEEEDWDYAPLVLAPDDRSYKSQYLNNGPQRIGRKYKKVRFMAYTDETFKTREAIQHESGILGPLLYGEVGDTLLIIFKNQASRPYNIYPHGITDVRPLYSRRLPKGVKHLKDFPILPGEIFKYKWTVTVEDGPTKSDPRCLTRYYSSFVNMERDLASGLIGPLLICYKESVDQRGNQIMSDKRNVILFSVFDENRSWYLTENIQRFLPNPAGVQLEDPEFQASNIMHSINGYVFDSLQLSVCLHEVAYWYILSIGAQTDFLSVFFSGYTFKHKMVYEDTLTLFPFSGETVFMSMENPGLWILGCHNSDFRNRGMTALLKVSSCDKNTGDYYEDSYEDISAYLLSKNNAIEPRSFSQNSRHRSTRQKQFNATTIPENDIEKTDPWFAHRTPMPKIQNVSSSDLLMLLRQSPTPHGLSLSDLQEAKYETFSDDPSPGAIDSNNSLSEMTHFRPQLHHSGDMVFTPESGLQLRLNEKLGTTAATELKKLDFKVSSTSNNLISTIPSDNLAAGTDNTSSLGPPSMPVHYDSQLDTTLFGKKSSPLTESGGPLSLSEENNDSKLLESGLMNSQESSWGKNVSSTESGRLFKGKRAHGPALLTKDNALFKVSISLLKTNKTSNNSATNRKTHIDGPSLLIENSPSVWQNILESDTEFKKVTPLIHDRMLMDKNATALRLNHMSNKTTSSKNMEMVQQKKEGPIPPDAQNPDMSFFKMLFLPESARWIQRTHGKNSLNSGQGPSPKQLVSLGPEKSVEGQNFLSEKNKVVVGKGEFTKDVGLKEMVFPSSRNLFLTNLDNLHENNTHNQEKKIQEEIEKKETLIQENVVLPQIHTVTGTKNFMKNLFLLSTRQNVEGSYDGAYAPVLQDFRSLNDSTNRTKKHTAHFSKKGEEENLEGLGNQTKQIVEKYACTTRISPNTSQQNFVTQRSKRALKQFRLPLEETELEKRIIVDDTSTQWSKNMKHLTPSTLTQIDYNEKEKGAITQSPLSDCLTRSHSIPQANRSPLPIAKVSSFPSIRPIYLTRVLFQDNSSHLPAASYRKKDSGVQESSHFLQGAKKNNLSLAILTLEMTGDQREVGSLGTSATNSVTYKKVENTVLPKPDLPKTSGKVELLPKVHIYQKDLFPTETSNGSPGHLDLVEGSLLQGTEGAIKWNEANRPGKVPFLRVATESSAKTPSKLLDPLAWDNHYGTQIPKEEWKSQEKSPEKTAFKKKDTILSLNACESNHAIAAINEGQNKPEIEVTWAKQGRTERLCSQNPPVLKRHQR
notes: Prepared from plasma-derived fVIII
